Measured values taken from article PMC4138882.

Target: 3ftt-wt, wild-type trimeric protein from which T3-08 was derived (PDB ID 3FTT), C-terminal (His)6 construct
Experiment: SEC

stoichiometry N: 3 subunits
Substance: 3ftt-wt, wild-type trimeric protein from which T3-08 was derived (PDB ID 3FTT), C-terminal (His)6 construct (natural protein)
